Measurements: doi:10.1101/433839

How the values were obtained:
Y118A SsuE = Y118A SsuE (UniProt P80644); test: other fluorescence titration
[1] = molecular target: wild-type SsuE (NADPH-dependent FMN reductase of the alkanesulfonate monooxygenase system) (UniProt P80644); test: other fluorescence titration

B1: wild-type SsuD (FMNH2-dependent alkanesulfonate monooxygenase) (enzyme)
chain: MSLNMFWFLPTHGDGHYLGTEEGSRPVDHGYLQQIAQAADRLGYTGVLIPTGRSCEDAWLVAASMIPVTQRLKFLVALRPSVTSPTVAARQAATLDRLSNGRALFNLVTGSDPQELAGDGVFLDHSERYEASAEFTQVWRRLLQRETVDFNGKHIHVRGAKLLFPAIQQPYPPLYFGGSSDVAQELAAEQVDLYLTWGEPPELVKEKIEQVRAKAAAHGRKIRFGIRLHVIVRETNDEAWQAAERLISHLDDETIAKAQAAFARTDSVGQQRMAALHNGKRDNLEISPNLWAGVGLVRGGAGTALVGDGPTVAARINEYAALGIDSFVLSGYPHLEEAYRVGELLFPLLDVAIPEIPQPQPLNPQGEAVANDFIPRKVAQS
Y118A SsuE
  Kd: 122 nM
[1]
  Kd: 40 nM
